# US7910544B2, “Conformationally constrained parthyroid hormone (PTH) analogs” (The General Hospital Corporation, priority 2003, dated 2011)
# Non-standard residues stand in square brackets, D forms with d. No end group written: not given here. Bpa = N[C@@H](Cc1ccc(C(=O)c2ccccc2)cc1)C(=O)O; hArg = N=C(N)NCCCC[C@H](N)C(=O)O; Nle = CCCC[C@H](N)C(=O)O; Deg = CCC(N)(CC)C(=O)O
# Tests used:
# P1R-delNt [1] = biological target: T1, P1R-delNt (Homo sapiens, UniProt Q03431); assay: cAMP antagonism assay in COS-7 cells transfected with P1R-delNt; format: cell-based; conditions: for N versus J domain selectivity of P1R antagonist: concluded from cAMP antagonism on wild-type P1R and P1R-delNt in COS-7 cells; for antagonism of agonist-induced cAMP response: P1R-delNt, antagonist 1×10−5 M
# T1 construct: expressed in transfected cells; host or cells: COS-7
# T1 sequence (Q03431 with tags, fused parts or gaps limits assumed): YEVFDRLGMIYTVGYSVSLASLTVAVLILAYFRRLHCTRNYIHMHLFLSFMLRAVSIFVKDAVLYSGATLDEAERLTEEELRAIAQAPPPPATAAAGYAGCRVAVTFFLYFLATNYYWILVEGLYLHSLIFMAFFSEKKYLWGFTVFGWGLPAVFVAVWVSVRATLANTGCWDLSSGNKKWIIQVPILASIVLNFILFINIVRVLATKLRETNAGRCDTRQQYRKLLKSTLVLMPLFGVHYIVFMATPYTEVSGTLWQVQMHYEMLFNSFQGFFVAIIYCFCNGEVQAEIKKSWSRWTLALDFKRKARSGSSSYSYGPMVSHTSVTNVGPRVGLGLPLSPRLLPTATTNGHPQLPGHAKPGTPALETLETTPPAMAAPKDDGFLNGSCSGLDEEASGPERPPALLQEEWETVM
# Protocol: (§1) FIG. 8. “N” versus “J” Domain selectivity of P1R Antagonists in COS-7 Cells. cAMP antagonism assays were performed in COS-7 cells transfect with the wild-type P1R (A), or a P1R derivative (P1R-delNt) having most (residues 24-181) of the P1R N domain deleted (B). Cells were treated with the agonist [Aib^1,3,Tyr^34]hpTH(1-34)NH2 ([Aib^1,3]PTH(1-34)), which utilizes both N and J domains for affinity/potency, or with [Ac5c^1, Aib^3, Gln^10,Har^11,Ala^12,Trp^14]PTH(1-14)NH2 ([Ac5c^1]PTH(1-14)), which uses only the J domain for affinity/potency, at the concentrations indicated in the key, so as to elicit half-maximum cAMP responses in the absence of antagonist (none). The analogs PTHrP(5-36) and Deg^1,3,Bpa^2-PTH(1-21) were added at 1×10−5 M, as indicated.
# (§2) Cell Culture. The cell line HKRK-B28 (Shimizu, el al., Biochem. 41: 13224-33 (2002)) was derived from the porcine kidney cell line, LLC-PK1 by stable transfection with plasmid DNA encoding the opossum/rat hybrid P1R and expresses ˜280,000 receptors per cell. The HKRK-B7 cell line was derived from the LLC-PK1 cell line by stable transfection with DNA encoding human P1R. HKRK-B7 cells expresses approximately 950,000 human P1R per cell (Takasu, H., et al., J. Bone Miner. Res. 14: 11-20 (1999)). These cells, as well as COS-7 cells and SaOS-2-B10 cells, are cultured at […] in T-75 flasks ([…]) in Dulbecco's modified Eagle's medium (DMEM) supplemented with fetal bovine serum (10%), penicillin G (20 units/ml), streptomycin sulfate (20 μg/ml) and amphotericin B (0.05 μg/ml) in a humidified atmosphere containing 5% Co2. Stock solutions of EGTA/trypsin and antibiotics are from GIBCO; fetal bovine serum is from Hyclone Laboratories (Logan, Utah). COS-7 cells sub-cultured in 24-well plates are transfected with plasmid DNA (200 ng per well) encoding the wild-type human P1R or truncated human P1R deleted for residues (24-181) (Shimizu, M., et al., J. Biol. Chem. 275: 21836-21843 (2000)) that is purified by cesium chloride/ethidium bromide density gradient centrifugation, and FuGENE 6 transfection reagent (Roche Indianapolis Ind.) according to the manufacturer's recommended procedure. All cells, in 24-well plates, are treated with fresh media and shifted to 33° C. for 12 to 24 h prior to assay.
# (§3) cAMP Stimulation. Stimulation of cells with peptide analogs is performed in 24-well plates. Cells are rinsed with 0.5 mL of binding buffer (50 mM Tris-HCl, 100 mM NaCl, 5 mM KCl, 2 mM CaCl2, 5% heat-inactivated horse serum, 0.5% fetal bovine serum, adjusted to pH 7.5 with HCl) and treated with 200 μL of cAMP assay buffer (Delbecco's modified Eagle's medium containing 2 mM 3-isobutyl-1-methylxanthine, 1 mg/mL bovine serum albumin, 35 mM Hepes-NaOH, pH 7.4) and 100 μL of binding buffer containing varying amounts of peptide analog (final volume=300 μL). The medium is removed after incubation for 30 to 60 minutes at room temperature, and the cells are frozen on dry ice, lysed with 0.5 mL 50 mM HCl, and refrozen ([…]). The cAMP content of the diluted lysate is determined by radioimmunoassay. The EC50 response values are calculated using nonlinear regression (see below).
# “N” versus “J” domain selectivity of P1R antagonists was investigated in COS-7 Cells (FIG. 8). cAMP antagonism assays were performed in COS-7 cells transfect with the wild-type P1R (A), or a P1R derivative (P1R-delNt) having most (residues 24-181) of the P1R N domain deleted (B). Cells were treated with the agonist [Aib^1,3,Tyr^34]hPTH(1-34)NH2 ([Aib^1,3]PTH(1-34)), which utilizes both N and J domains for affinity/potency, or with [Ac5c^1,Aib^3,Gln^10,Har^11,Ala^12,Trp^14]PTH(1-14)NH2 ([Ac5c^1]PTH(1-14)), which uses only the J domain for affinity/potency, at the concentrations indicated in the key, so as to elicit half-maximum cAMP responses in the absence of antagonist (none). The analogs PTHrP(5-36) and Deg^1,3,Bpa^2-PTH(1-21) were added at 1×10−5 M, as indicated.
# P1R-delNt [2] = biological target: T1, P1R-delNt; assay: Competitive antagonism on P1R-delNt (shift of agonist dose-response curve, cAMP); format: cell-based; conditions: for shift of agonist dose-response curve: agonist [Aib1,3,Tyr34]hPTH(1-34)NH2, antagonist 1×10−5 M, COS-7/P1R-delNt; for mechanism of inhibition: from shift of [Aib1,3,Tyr34]hPTH(1-34)NH2 dose-response curve
# From the text: FIG. 10. Competitive Antagonism on P1R-delNt. COS-7 cells transfected with P1R-delNt were stimulated with varying concentrations of the agonist [Aib^1,3,Tyr^34]hPTH(1-34)NH2 ([Aib^1,3]PTH(1-34)), either in the absence of antagonist or in the presence of an antagonist, [Deg^1,3,Bpa2,M]PTH(1-14) or [Deg^1,3,Bpa^2,M]PTH(1-21) each at 1×10−5 M, as indicated in the figure key.
# as §2, §3
# The pharmacologic mechanism by which [Deg^1,3,BPA^2,Nle^8,Gln^10,Har^11,Ala^12,Trp^14,Arg^19,Tyr^21]PTH(1-21)NH2 and [Deg^1,3,Bpa^2,Gln^10,Har^11,Ala^12,Trp^14]PTH(1-14)NH2 function as antagonists was investigated in FIG. 10. In this study, the effects of the antagonists at […], on the dose-response curve elicited by the agonist [Aib^1,3,Tyr^34]hPTH(1-34)NH2 were examined in […].
# wild-type P1R = biological target: T2, wild-type P1R (Homo sapiens, UniProt Q03431); assay: cAMP antagonism assay in COS-7 cells transfected with wild-type P1R; format: cell-based; conditions: WT receptor; agonist [Ac5c1,Aib3,Gln10,Har11,Ala12,Trp14]PTH(1-14)NH2; antagonist 1×10−5 M; listed as Deg^1,3,Bpa^2-PTH(1-21)
# T2 construct: expressed in transfected cells; host or cells: COS-7
# T2 sequence (Q03431 27-593): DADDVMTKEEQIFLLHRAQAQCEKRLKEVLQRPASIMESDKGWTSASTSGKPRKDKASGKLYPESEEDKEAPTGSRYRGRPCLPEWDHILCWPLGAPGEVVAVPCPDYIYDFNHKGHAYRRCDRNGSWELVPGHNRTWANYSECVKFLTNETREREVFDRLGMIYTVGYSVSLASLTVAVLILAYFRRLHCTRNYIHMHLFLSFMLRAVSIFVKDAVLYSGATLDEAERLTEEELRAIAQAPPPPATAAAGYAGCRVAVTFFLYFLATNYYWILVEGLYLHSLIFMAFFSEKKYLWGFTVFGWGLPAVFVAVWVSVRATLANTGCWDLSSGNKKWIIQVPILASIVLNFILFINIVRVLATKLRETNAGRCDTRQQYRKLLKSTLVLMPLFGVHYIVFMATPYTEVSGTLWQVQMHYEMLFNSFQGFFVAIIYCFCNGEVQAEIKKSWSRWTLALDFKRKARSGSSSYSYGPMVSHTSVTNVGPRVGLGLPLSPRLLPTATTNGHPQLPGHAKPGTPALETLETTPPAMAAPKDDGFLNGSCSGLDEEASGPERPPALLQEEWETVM
# Protocol: as §1
# Cell Culture. The cell line HKRK-B28 (Shimizu, el al., Biochem. 41: 13224-33 (2002)) was derived from the porcine kidney cell line, LLC-PK1 by stable transfection with plasmid DNA encoding the opossum/rat hybrid P1R and expresses ˜280,000 receptors per cell. The HKRK-B7 cell line was derived from the LLC-PK1 cell line by stable transfection with DNA encoding human P1R. […]
# cAMP Stimulation. […] The cAMP content of the diluted lysate is determined by radioimmunoassay. The EC50 response values are calculated using nonlinear regression (see below). […]
# P1R = biological target: T3, P1R (Homo sapiens, UniProt Q03431); conditions: literature (Luck et al. 1999); read-out: cAMP-signaling potency EC50; cited from earlier work
# T3 sequence (Q03431 27-593): T2 sequence (Q03431 27-593)
Substance,N versus J domain selectivity of P1R antagonist (P1R-delNt [1]),shift of agonist dose-response curve (P1R-delNt [2]),"shift of agonist dose-response curve (P1R-delNt [2]; listed as [Deg^1,3,Bpa2,M]PTH(1-14))",mechanism of inhibition (P1R-delNt [2]),"antagonism of agonist-induced cAMP response (P1R-delNt [1]; agonist [Ac5c1,Aib3,Gln10,Har11,Ala12,Trp14]PTH(1-14)NH2)","antagonism of agonist-induced cAMP response (P1R-delNt [1]; agonist [Ac5c1,Aib3,Gln10,Har11,Ala12,Trp14]PTH(1-14)NH2, listed as Deg^1,3,Bpa^2-PTH(1-21))","antagonism of agonist-induced cAMP response (P1R-delNt [1]; agonist [Aib1,3,Tyr34]hPTH(1-34)NH2)","antagonism of agonist-induced cAMP response (P1R-delNt [1]; agonist [Aib1,3,Tyr34]hPTH(1-34)NH2, listed as Deg^1,3,Bpa^2-PTH(1-21))","N versus J domain selectivity of P1R antagonist (P1R-delNt [1]; listed as Deg^1,3,Bpa^2-PTH(1-21))","shift of agonist dose-response curve (P1R-delNt [2]; listed as [Deg^1,3,Bpa^2,M]PTH(1-21))",antagonism of agonist-induced cAMP response (wild-type P1R),EC50 (P1R)
DegBpaDegGluIleGlnLeuMetHisGlnHarAlaLysTrpNH2 ([Deg][Bpa][Deg]EIQLMHQ[hArg]AKW-NH2; N-terminus assumed; SMILES CC[C@H](C)[C@H](NC(=O)[C@H](CCC(=O)O)NC(=O)C(CC)(CC)NC(=O)[C@H](Cc1ccc(C(=O)c2ccccc2)cc1)NC(=O)C(N)(CC)CC)C(=O)N[C@@H](CCC(N)=O)C(=O)N[C@@H](CC(C)C)C(=O)N[C@@H](CCSC)C(=O)N[C@@H](Cc1c[nH]cn1)C(=O)N[C@@H](CCC(N)=O)C(=O)N[C@@H](CCCCNC(=N)N)C(=O)N[C@@H](C)C(=O)N[C@@H](CCCCN)C(=O)N[C@@H](Cc1c[nH]c2ccccc12)C(N)=O),"behaved similarly in these assays to Deg^1,3,Bpa^2-PTH(1-21)",rightward and parallel shift in the agonist response curve,"parallel, right-ward shift in the agonist dose-response curve",competitive,–,–,–,–,–,–,–,–
DegBpaDegGluIleGlnLeuNleHisGlnHarAlaLysTrpLeuAlaSerValArgArgTyrNH2 ([Deg][Bpa][Deg]EIQL[Nle]HQ[hArg]AKWLASVRRY-NH2; N-terminus assumed; SMILES CCCC[C@H](NC(=O)[C@H](CC(C)C)NC(=O)[C@H](CCC(N)=O)NC(=O)[C@@H](NC(=O)[C@H](CCC(=O)O)NC(=O)C(CC)(CC)NC(=O)[C@H](Cc1ccc(C(=O)c2ccccc2)cc1)NC(=O)C(N)(CC)CC)[C@@H](C)CC)C(=O)N[C@@H](Cc1c[nH]cn1)C(=O)N[C@@H](CCC(N)=O)C(=O)N[C@@H](CCCCNC(=N)N)C(=O)N[C@@H](C)C(=O)N[C@@H](CCCCN)C(=O)N[C@@H](Cc1c[nH]c2ccccc12)C(=O)N[C@@H](CC(C)C)C(=O)N[C@@H](C)C(=O)N[C@@H](CO)C(=O)N[C@H](C(=O)N[C@@H](CCCNC(=N)N)C(=O)N[C@@H](CCCNC(=N)N)C(=O)N[C@@H](Cc1ccc(O)cc1)C(N)=O)C(C)C),potent J-domain selective antagonist,rightward and parallel shift in the agonist response curve,–,competitive,strongly inhibited,antagonizes either agonist,strongly inhibited,antagonizes either agonist,J domain-selective antagonist,"parallel, right-ward shift in the agonist dose-response curve","antagonizes PTH(1- 14), more effectively than does PTHrP(5-36)",–
PTH(1-34): first 34 amino acids of parathyroid hormone,–,–,–,–,–,–,–,–,–,–,–,~2 nM
